Test in all cases: native MS
The target in data set [1] is MukB^HN (MukB Head-Neck) (E. coli).
The target in data set [2] is MukB^N (MukB Neck) (E. coli).
The data set “native MS” concerns the molecule itself.

Turning to “Acyl Carrier Protein (AcpP), co-purified with MukB proteins (from UniProt P0A6A8 1-78) (natural protein)”, the stoichiometry N in data set [1] and in data set [2] was 1 in each case.
Molecule MukB^N (MukB Neck) (domain or fragment) yielded a stoichiometry N in data set [2] of 2.

B1: MukB-His (wild type MukB) (natural protein, E. coli, UniProt P22523 1-1486, looked up)
chain: MIERGKFRSLTLINWNGFFARTFDLDELVTTLSGGNGAGKSTTMAAFVTALIPDLTLLHFRNTTEAGATSGSRDKGLHGKLKAGVCYSMLDTINSRHQRVVVGVRLQQVAGRDRKVDIKPFAIQGLPMSVQPTQLVTETLNERQARVLPLNELKDKLEAMEGVQFKQFNSITDYHSLMFDLGIIARRLRSASDRSKFYRLIEASLYGGISSAITRSLRDYLLPENSGVRKAFQDMEAALRENRMTLEAIRVTQSDRDLFKHLISEATNYVAADYMRHANERRVHLDKALEFRRELHTSRQQLAAEQYKHVDMARELAEHNGAEGDLEADYQAASDHLNLVQTALRQQEKIERYEADLDELQIRLEEQNEVVAEAIERQQENEARAEAAELEVDELKSQLADYQQALDVQQTRAIQYNQAIAALNRAKELCHLPDLTADCAAEWLETFQAKELEATEKMLSLEQKMSMAQTAHSQFEQAYQLVVAINGPLARNEAWDVARELLREGVDQRHLAEQVQPLRMRLSELEQRLREQQEAERLLADFCKRQGKNFDIDELEALHQELEARIASLSDSVSNAREERMALRQEQEQLQSRIQSLMQRAPVWLAAQNSLNQLSEQCGEEFTSSQDVTEYLQQLLEREREAIVERDEVGARKNAVDEEIERLSQPGGSEDQRLNALAERFGGVLLSEIYDDVSLEDAPYFSALYGPSRHAIVVPDLSQVTEHLEGLTDCPEDLYLIEGDPQSFDDSVFSVDELEKAVVVKIADRQWRYSRFPEVPLFGRAARESRIESLHAEREVLSERFATLSFDVQKTQRLHQAFSRFIGSHLAVAFESDPEAEIRQLNSRRVELERALSNHENDNQQQRIQFEQAKEGVTALNRILPRLNLLADDSLADRVDEIRERLDEAQEAARFVQQFGNQLAKLEPIVSVLQSDPEQFEQLKEDYAYSQQMQRDARQQAFALTEVVQRRAHFSYSDSAEMLSGNSDLNEKLRERLEQAEAERTRAREALRGHAAQLSQYNQVLASLKSSYDTKKELLNDLQRELQDIGVRADSGAEERARIRRDELHAQLSNNRSRRNQLEKALTFCEAEMDNLTRKLRKLERDYFEMREQVVTAKAGWCAVMRMVKDNGVERRLHRRELAYLSADDLRSMSDKALGALRLAVADNEHLRDVLRMSEDPKRPERKIQFFVAVYQHLRERIRQDIIRTDDPVEAIEQMEIELSRLTEELTSREQKLAISSRSVANIIRKTIQREQNRIRMLNQGLQNVSFGQVNSVRLNVNVRETHAMLLDVLSEQHEQHQDLFNSNRLTFSEALAKLYQRLNPQIDMGQRTPQTIGEELLDYRNYLEMEVEVNRGSDGWLRAESGALSTGEAIGTGMSILVMVVQSWEDESRRLRGKDISPCRLLFLDEAARLDARSIATLFELCERLQMQLIIAAPENISPEKGTTYKLVRKVFQNTEHVHVVGLRGFAPQLPETLPGTDEAPSQAS
B1: the binding result in “native MS” is listed as “binds”.

One may read the stoichiometry N as a count of units in the complex or per binding partner.
